Assay results taken from publication PMC2115722.

Biological target: Acanthamoeba actin (Acanthamoeba castellanii)
Test: cross-linking

Substance: Acanthamoeba profilin I (natural protein)
- stoichiometry N (profilin per actin): 1
